To fix the notation:
B1: RPtag(small) Nd2, Cd4 (peptide)
peptide: RhodamineB-KIPNFIPAELKLITK

Experiment [1] addresses T1, NativeRPtag(large)_with_Tags_and_Cys (Thermoanaerobacter tengcongensis).
T1 construct: Unlabeled in anisotropy assays; coupled through the engineered N-terminal Cys to SulfoLink agarose or maleimide plates in column, pull-down and ELISA assays
T1 chain: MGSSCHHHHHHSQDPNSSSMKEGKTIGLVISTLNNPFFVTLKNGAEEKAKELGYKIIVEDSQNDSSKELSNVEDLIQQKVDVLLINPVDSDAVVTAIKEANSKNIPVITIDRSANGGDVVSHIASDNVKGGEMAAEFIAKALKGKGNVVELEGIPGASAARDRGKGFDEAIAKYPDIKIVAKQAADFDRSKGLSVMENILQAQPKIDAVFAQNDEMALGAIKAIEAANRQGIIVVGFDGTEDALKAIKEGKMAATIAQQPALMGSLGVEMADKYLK
Put plainly: fluorescence anisotropy.

Experiment [2] has as its target T1, NativeRPtag(large)_with_Tags_and_Cys. Put plainly: calculated from koff and Kd.
The target is the same in experiment [3]. Nature of the experiment: fluorescence anisotropy, competitor chase. In general terms: Polarisation of emitted light reports the rotation of a fluorescent probe.
For experiment [4] the target is unchanged. Put plainly: fluorescence anisotropy, association kinetics.
The experiment “RPtag(small) Nd2, Cd4” has as its target B1. Put plainly: fluorescence anisotropy; 2 nM rhodamine Nd2Cd4, unlabeled RPtag large variant titrated; bar of Ka = 1/Kd, right axis.
Protocol: (§1) After the incubation, fluorescence anisotropy was measured, and the resultant curves were fit with the equation f=y0+(ymax−y0)*(Ptot+x+Kd−sqrt((Ptot+x+Kd)\hat{ }2−4*Ptot*x))/(2*Ptot), where y0 is the baseline anisotropy, ymax is the maximum anisotropy, Ptot is the fixed concentration of labeled peptide used, x is the variable concentration of protein used, and Kd is the measured Kd. […] Buffer was 50 mM Tris pH 8.0, 0.005% Tween20.
Experiment [5] addresses T2, MaturePDGF-β_NterminalPeptide.
T2 construct: an N-terminal G was added and is left out of the numbering; also called PDGF-β peptide
T2 peptide: RhodamineB-GSLGSLTIAEPAMIAE
Nature of the experiment: fluorescence anisotropy; 20 nM rhodamine PDGF-β N-terminal peptide, unlabeled RPtag large variant titrated; bar of Ka = 1/Kd, left axis.
Protocol: as §1

No end group written: not given here. *: point of attachment. RhodamineB = CCN(CC)c1ccc2c(-c3ccccc3C(=O)*)c3ccc(=[N+](CC)CC)cc-3oc2c1

The source of these data is patent publication US20200102347A1 (AUCTUS BIOLOGIES, published 2020).

In the case of RhodamineB-EKIPNFIPAELKLITKENVQ [RPtag(small) Nd1], in experiment [1], binding was put at a Kd of 0.25 nM. In addition, the kon (usually a measure of how fast the partners come together) in experiment [2] is 567000 M⁻¹ s⁻¹. The koff (commonly the rate constant with which the complex falls apart) in experiment [3] turned out to be 0.000147 s⁻¹. Moreover, in experiment [4], the “Keq (S-S*)” value worked out at 2.7, the “kf (S to S*)” value stood at 0.064 min⁻¹ and the “kr (S* to S)” value turned out to be 0.024 min⁻¹.

For B1, the Kd (in general, the equilibrium constant for the complex coming apart) in experiment [1] amounted to 0.41 nM. In experiment [2], the on-rate (kon) is 3.33e+06 M⁻¹ s⁻¹. Moreover, the koff in experiment [3] worked out at 0.00132 s⁻¹. For the same molecule, in experiment [4], the “Keq (S-S*)” value amounted to 0.7, the “kf (S to S*)” value was 0.093 min⁻¹ and the “kr (S* to S)” value came out at 0.13 min⁻¹.

In turn, RhodamineB-KIANFIPAELKLITK [RPtag(small) Nd2, Cd4, p5a] returned a dissociation constant Kd in experiment [1] of 0.82 nM. The association rate constant (kon) in experiment [2] was 3.67e+06 M⁻¹ s⁻¹. In experiment [3], this molecule gave a dissociation rate constant (koff) of 0.003 s⁻¹. In experiment [4], the “Keq (S-S*)” value came to 0.8, the “kf (S to S*)” value came out at 0.11 min⁻¹ and the “kr (S* to S)” value was 0.14 min⁻¹.

In experiment [1], RhodamineB-GEKIPNFIPAELKLITKENV [RPtag(small) Cd1] returned a Kd of 0.55 nM. Moreover, the kon in experiment [2] is 183000 M⁻¹ s⁻¹. This molecule gave a koff in experiment [3] of 0.000102 s⁻¹. Besides, in experiment [4], the “Keq (S-S*)” value worked out at 2.5, the “kf (S to S*)” value was determined as 0.1 min⁻¹ and the “kr (S* to S)” value was determined as 0.042 min⁻¹.

Turning to RhodamineB-GEKIPNFIPAELKLITK [RPtag(small) Cd4], in experiment [1], the Kd is 1 nM. Further, in experiment [2], the on-rate constant (kon) is 3.67e+06 M⁻¹ s⁻¹. The molecule further came in with a koff in experiment [3] of 0.00367 s⁻¹. In addition, in experiment [4], the “Keq (S-S*)” value was determined as 1.3, the “kf (S to S*)” value came out at 0.014 min⁻¹ and the “kr (S* to S)” value came to 0.11 min⁻¹.

As to RhodamineB-GEKIPNFAPAELKLITKENVQ [RPtag(small) i8a], in experiment [1], binding was characterised by a dissociation constant (Kd) of 1.1 nM. Also, the association rate constant (kon) in experiment [2] is 1.43e+06 M⁻¹ s⁻¹. The same molecule gave a koff in experiment [3] of 0.0015 s⁻¹. In experiment [4], the “Keq (S-S*)” value is 0.8, the “kf (S to S*)” value is 0.078 min⁻¹ and the “kr (S* to S)” value was 0.046 min⁻¹.

Take RhodamineB-GEKIPNFIPAELKLATKENVQ [RPtag(small) i15a]: in experiment [1], the dissociation constant (Kd) was determined as 4.5 nM. For the same molecule, the kon in experiment [2] was 4.17e+06 M⁻¹ s⁻¹. Besides, in experiment [3], the koff is 0.0183 s⁻¹. Moreover, in experiment [4], the “Keq (S-S*)” value turned out to be 1.4, the “kf (S to S*)” value is 0.077 min⁻¹ and the “kr (S* to S)” value turned out to be 0.053 min⁻¹.

Consider RhodamineB-GEKIPAFIPAELKLITKENVQ [RPtag(small) n6a], for which the affinity in experiment [1], expressed as Kd, was 0.34 nM. Moreover, the on-rate constant (kon) in experiment [2] was 75000 M⁻¹ s⁻¹. Moreover, the koff in experiment [3] is 2.5e-05 s⁻¹. Further, in experiment [4], the “Keq (S-S*)” value came to 1.3, the “kf (S to S*)” value came to 0.082 min⁻¹ and the “kr (S* to S)” value is 0.068 min⁻¹.

B2: RPtag(small) q21a (peptide)
peptide: RhodamineB-GEKIPNFIPAELKLITKENVA
notes: built here from the native peptide with the stated change
B2: the Kd in experiment [1] stood at 0.1 nM. In experiment [2], the kon is 583000 M⁻¹ s⁻¹. In experiment [3], this molecule showed a koff of 5.67e-05 s⁻¹. Moreover, in experiment [4], the “Keq (S-S*)” value was found to be 0.8, the “kf (S to S*)” value was determined as 0.087 min⁻¹ and the “kr (S* to S)” value turned out to be 0.11 min⁻¹.

RhodamineB-GEKIPNFIPAEAKLITKENVQ [RPtag(small) l12a] gave a dissociation constant Kd in experiment [1] of 4.7 nM. The kon in experiment [2] is 717000 M⁻¹ s⁻¹. In experiment [3], this molecule returned an off-rate (koff) of 0.00333 s⁻¹. Moreover, in experiment [4], the “Keq (S-S*)” value was determined as 1.1, the “kf (S to S*)” value was 0.089 min⁻¹ and the “kr (S* to S)” value is 0.081 min⁻¹.

B3: RPtag(small) v20a (peptide)
peptide: RhodamineB-GEKIPNFIPAELKLITKENAQ
notes: as for B2
Turning to B3, the Kd in experiment [1] was found to be 0.18 nM. For the same molecule, the kon in experiment [2] was 1.13e+06 M⁻¹ s⁻¹. The koff in experiment [3] was 0.0002 s⁻¹. In experiment [4], the “Keq (S-S*)” value came to 1.5, the “kf (S to S*)” value was found to be 0.073 min⁻¹ and the “kr (S* to S)” value amounted to 0.05 min⁻¹.

Consider RhodamineB-GEKIPNFIAAELKLITKENVQ [RPtag(small) p9a], for which the Kd in experiment [1] was 0.18 nM. In addition, in experiment [2], the on-rate (kon) is 233000 M⁻¹ s⁻¹. Also, the koff in experiment [3] is 4e-05 s⁻¹. Besides, in experiment [4], the “Keq (S-S*)” value amounted to 2.7, the “kf (S to S*)” value was 0.092 min⁻¹ and the “kr (S* to S)” value is 0.04 min⁻¹.

In turn, RhodamineB-GEKIPNFIPAELKLIAKENVQ [RPtag(small) t16a] returned a Kd in experiment [1] of 1.2 nM. For the same molecule, the kon in experiment [2] was 1.25e+06 M⁻¹ s⁻¹. The koff in experiment [3] came out at 0.00148 s⁻¹. Further, in experiment [4], the “Keq (S-S*)” value came to 2.5, the “kf (S to S*)” value came to 0.071 min⁻¹ and the “kr (S* to S)” value was 0.038 min⁻¹.

B4: a253k (designed binder)
single chain: MGSSCHHHHHHSQDPNSSSMKEGKTIGLVISTLNNPFFVTLKNGAEEKAKELGYKIIVEDSQNDSSKELSNVEDLIQQKVDVLLINPVDSDAVVTAIKEANSKNIPVITIDRSANGGDVVSHIASDNVKGGEMAAEFIAKALKGKGNVVELEGIPGASAARDRGKGFDEAIAKYPDIKIVAKQAADFDRSKGLSVMENILQAQPKIDAVFAQNDEMALGAIKAIEAANRQGIIVVGFDGTEDALKAIKEGKMKATIAQQPALMGSLGVEMADKYLK
notes: also called RPtag(large) A253K
For the molecule B4, the binding result in the experiment with RPtag(small) Nd2, Cd4 was “binds”; in experiment [5], “binds”.

B5: a253r (designed binder)
single chain: MGSSCHHHHHHSQDPNSSSMKEGKTIGLVISTLNNPFFVTLKNGAEEKAKELGYKIIVEDSQNDSSKELSNVEDLIQQKVDVLLINPVDSDAVVTAIKEANSKNIPVITIDRSANGGDVVSHIASDNVKGGEMAAEFIAKALKGKGNVVELEGIPGASAARDRGKGFDEAIAKYPDIKIVAKQAADFDRSKGLSVMENILQAQPKIDAVFAQNDEMALGAIKAIEAANRQGIIVVGFDGTEDALKAIKEGKMRATIAQQPALMGSLGVEMADKYLK
notes: also called RPtag(large) A253R
For the molecule B5, the binding result in the experiment with RPtag(small) Nd2, Cd4 is “binds”; in experiment [5], “binds”.

Regarding RhodamineB-GEKIPNFIPAELKLITKEN [RPtag(small) Cd2], the Kd in experiment [1] was 1.1 nM. In addition, the on-rate (kon) in experiment [2] is 1.63e+06 M⁻¹ s⁻¹. Moreover, the koff in experiment [3] came to 0.00183 s⁻¹. Moreover, in experiment [4], the “Keq (S-S*)” value was found to be 3.5, the “kf (S to S*)” value was found to be 0.15 min⁻¹ and the “kr (S* to S)” value was found to be 0.043 min⁻¹.

In experiment [1], RhodamineB-GEKIPNFIPAELKLITKE [RPtag(small) Cd3] returned an equilibrium dissociation constant (Kd) of 1.2 nM. Moreover, in experiment [2], the kon is 1.83e+06 M⁻¹ s⁻¹. For the same molecule, the off-rate constant (koff) in experiment [3] came out at 0.002 s⁻¹. Further, in experiment [4], the “Keq (S-S*)” value worked out at 3.1, the “kf (S to S*)” value was determined as 0.014 min⁻¹ and the “kr (S* to S)” value turned out to be 0.045 min⁻¹.

As for RhodamineB-KIPNFIPAELKLITKE [RPtag(small) Nd2, Cd3], the Kd in experiment [1] was 0.56 nM. For the same molecule, the association rate constant (kon) in experiment [2] was 1.37e+06 M⁻¹ s⁻¹. Also, in experiment [3], the koff came out at 0.000767 s⁻¹. In experiment [4], the “Keq (S-S*)” value was determined as 0.6, the “kf (S to S*)” value turned out to be 0.081 min⁻¹ and the “kr (S* to S)” value turned out to be 0.14 min⁻¹.

In experiment [1], RhodamineB-KIANFIPAELKLITKA [RPtag(small) Nd2, Cd3, p5a, e18a] gave a Kd of 0.56 nM. In experiment [2], the kon was 5.5e+06 M⁻¹ s⁻¹. For the same molecule, the koff in experiment [3] amounted to 0.003 s⁻¹. Besides, in experiment [4], the “Keq (S-S*)” value amounted to 0.7, the “kf (S to S*)” value is 0.086 min⁻¹ and the “kr (S* to S)” value turned out to be 0.13 min⁻¹.

In experiment [1], RhodamineB-KIPNFIPAELKLITKA [RPtag(small) Nd2, Cd3, e18a] came in with a Kd of 0.13 nM. Further, the association rate constant (kon) in experiment [2] is 6.67e+06 M⁻¹ s⁻¹. In experiment [3], this molecule had a koff of 0.000883 s⁻¹. Further, in experiment [4], the “Keq (S-S*)” value was determined as 0.3, the “kf (S to S*)” value is 0.084 min⁻¹ and the “kr (S* to S)” value is 0.26 min⁻¹.

For the molecule RhodamineB-KIANFIPAELKLITKE [RPtag(small) Nd2, Cd3, p5a], the Kd in experiment [1] is 0.64 nM. Besides, the kon in experiment [2] was 4.33e+06 M⁻¹ s⁻¹. Besides, in experiment [3], the koff turned out to be 0.00267 s⁻¹. Besides, in experiment [4], the “Keq (S-S*)” value came to 0.6, the “kf (S to S*)” value stood at 0.093 min⁻¹ and the “kr (S* to S)” value turned out to be 0.16 min⁻¹.

RhodamineB-KIPNFIPAELKLITKANAA [RPtag(small) Nd2, e18a, v20a, q21a] gave a Kd in experiment [1] of 0.36 nM. For the same molecule, the on-rate constant (kon) in experiment [2] is 600000 M⁻¹ s⁻¹. The same molecule yielded an off-rate (koff) in experiment [3] of 0.000383 s⁻¹. Further, in experiment [4], the “Keq (S-S*)” value is 0.8, the “kf (S to S*)” value came to 0.045 min⁻¹ and the “kr (S* to S)” value is 0.06 min⁻¹.

RhodamineB-KIANFIPAELKLITKANAA [RPtag(small) Nd2, p5a, e18a, v20a, q21a] had a Kd in experiment [1] of 0.16 nM. The kon in experiment [2] was 3.33e+06 M⁻¹ s⁻¹. The molecule also showed a koff in experiment [3] of 0.000217 s⁻¹. Also, in experiment [4], the “Keq (S-S*)” value came to 0.4, the “kf (S to S*)” value is 0.05 min⁻¹ and the “kr (S* to S)” value stood at 0.14 min⁻¹.
